{"source": "patent US20180051068A1", "target": "integrin β1 expressed by the β1AGD25 cell line", "experiment": "cell-based or functional assay"}
{"substance": "CalA-mCherry expressed in S. cerevisiae that co-expresses Candida albicans Als1", "values": [{"measurement": "endocytosis of S. cerevisiae by β1AGD25 cells (differential fluorescence assay)", "value": 3, "unit": "times"}]}
